The test system of data set [1] is HeLa Kyoto. Description: solubility in G1/S (NP-40 vs SDS abundance) (log2 ratio); higher = more soluble. Conditions: cell cycle stage: G1/S.
In data set [2] the test system is HeLa Kyoto. Description: thermal stability score vs G1/S (z-score of summed log2 fold changes over temperatures); higher = more thermally stable than in G1/S.
Data set [3] has as its system HeLa Kyoto. Description: solubility change mitosis vs G1/S (difference of NP-40 vs SDS log2 ratios) (log2 ratio difference); higher = more soluble in mitosis.
Data set [4] has as its system HeLa Kyoto. Nature of the data set: melting temperature (median over replicates), in situ; higher = more thermally stable.
The mark [5] stands for this setting: cell cycle stage: early G1 (4.5 h after nocodazole release).
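For melting temperature (median over replicates), in situ in this document: HeLa Kyoto cells synchronized by double thymidine or nocodazole block, proteins quantified by TMT10plex mass spectrometry, three independent biological replicates.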
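For solubility change mitosis vs G1/S (difference of NP-40 vs SDS log2 ratios) in this document: synchronized HeLa Kyoto cells (double thymidine block for G1/S, nocodazole release for mitosis), protein amounts in NP-40 versus SDS lysates quantified by mass spectrometry, three biological replicates.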
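For solubility in G1/S (NP-40 vs SDS abundance) in this document: HeLa Kyoto cells arrested at G1/S by double thymidine block, proteins quantified by TMT10plex mass spectrometry in mild NP-40 versus SDS extracts, three biological replicates.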
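For thermal stability score vs G1/S (z-score of summed log2 fold changes over temperatures) in this document: synchronized HeLa Kyoto cells, proteins quantified by TMT10plex mass spectrometry, three biological replicates, mitosis taken 0.5 h after nocodazole release, G1/S directly after double thymidine block.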

Consider “MVLLRVLILLLSWAAGMGGQYGNPLNKYIRHYEGLSYNVDSLHQKHQRAKRAVSHEDQFLRLDFHAHGRHFNLRMKRDTSLFSDEFKVETSNKVLDYDTSHIYTGHIYGEEGSFSHGSVIDGRFEGFIQTRGGTFYVEPAERYIKDRTLPFHSVIYHEDDINYPHKYGPQGGCADHSVFERMRKYQMTGVEEVTQIPQEEHAANGPELLRKKRTTSAEKNTCQLYIQTDHLFFKYYGTREAVIAQISSHVKAIDTIYQTTDFSGIRNISFMVKRIRINTTADEKDPTNPFRFPNIGVEKFLELNSEQNHDDYCLAYVFTDRDFDDGVLGLAWVGAPSGSSGGICEKSKLYSDGKKKSLNTGIITVQNYGSHVPPKVSHITFAHEVGHNFGSPHDSGTECTPGESKNLGQKENGNYIMYARATSGDKLNNNKFSLCSIRNISQVLEKKRNNCFVESGQPICGNGMVEQGEECDCGYSDQCKDECCFDANQPEGRKCKLKPGKQCSPSQGPCCTAQCAFKSKSEKCRDDSDCAREGICNGFTALCPASDPKPNFTDCNRHTQVCINGQCAGSICEKYGLEECTCASSDGKDDKELCHVCCMKKMDPSTCASTGSVQWSRHFSGRTITLQPGSPCNDFRGYCDVFMRCRLVDADGPLARLKKAIFSPELYENIAEWIVAHWWAVLLMGIALIMLMAGFIKICSVHTPSSNPKLPPPKPLPGTLKRRRPPQPIQQPQRQRPRESYQMGHMRR [ADAM10]”, for which the “solubility in G1/S (log2)” value in data set [1] is -0.0721. The thermal stability score in data set [2] (setting [5]) was determined as 0.749; in data set [2] (cell cycle stage: mitosis), 1.37. In addition, the “solubility change mitosis (log2)” value in data set [3] is -0.0492. In addition, the melting temperature in data set [4] (cell cycle stage: G1/S) was 53.3 °C; in data set [4] (cell cycle stage: mitosis), 53.9 °C.

“MVLLTMIARVADGLPLAASMQEDEQSGRDLQQYQSQAKQLFRKLNEQSPTRCTLEAGAMTFHYIIEQGVCYLVLCEAAFPKKLAFAYLEDLHSEFDEQHGKKVPTVSRPYSFIEFDTFIQKTKKLYIDSRARRNLGSINTELQDVQRIMVANIEEVLQRGEALSALDSKANNLSSLSKKYRQDAKYLNMRSTYAKLAAVAVFFIMLIVYVRFWWL [SEC22B]”: the “solubility in G1/S (log2)” value in data set [1] is -0.0184. Besides, the values for the thermal stability score in data set [2] (setting [5]) and in data set [2] (cell cycle stage: mitosis) were 4.24 and 5.81, respectively. Also, in data set [3], the “solubility change mitosis (log2)” value worked out at 0.0289. In addition, the melting temperature came out at 51.3 °C in data set [4] (cell cycle stage: G1/S) and 52.2 °C in data set [4] (cell cycle stage: mitosis).

Take “MVLWILWRPFGFSGRFLKLESHSITESKSLIPVAWTSLTQMLLEAPGIFLLGQRKRFSTMPETETHERETELFSPPSDVRGMTKLDRTAFKKTVNIPVLKVRKEIVSKLMRSLKRAALQRPGIRRVIEDPEDKESRLIMLDPYKIFTHDSFEKAELSVLEQLNVSPQISKYNLELTYEHFKSEEILRAVLPEGQDVTSGFSRIGHIAHLNLRDHQLPFKHLIGQVMIDKNPGITSAVNKINNIDNMYRNFQMEVLSGEQNMMTKVRENNYTYEFDFSKVYWNPRLSTEHSRITELLKPGDVLFDVFAGVGPFAIPVAKKNCTVFANDLNPESHKWLLYNCKLNKVDQKVKVFNLDGKDFLQGPVKEELMQLLGLSKERKPSVHVVMNLPAKAIEFLSAFKWLLDGQPCSSEFLPIVHCYSFSKDANPAEDVRQRAGAVLGISLEACSSVHLVRNVAPNKEMLCITFQIPASVLYKNQTRNPENHEDPPLKRQRTAEAFSDEKTQIVSNT [TRMT5]”: in data set [1], the “solubility in G1/S (log2)” value was found to be 0.289. Also, the thermal stability score is -0.613 in data set [2] (setting [5]) and -0.00215 in data set [2] (cell cycle stage: mitosis). In addition, the “solubility change mitosis (log2)” value in data set [3] is -0.0856. In addition, the melting temperature in data set [4] (cell cycle stage: G1/S) worked out at 57.7 °C; in data set [4] (cell cycle stage: mitosis), 56.1 °C.

For the sequence “MVMAYFVENFWGEKNSGFDVLYHNMKHGQISTKELADFVRERATIEEAYSRSMTKLAKSASNYSQLGTFAPVWDVFKTSTEKLANCHLDLVRKLQELIKEVQKYGEEQVKSHKKTKEEVAGTLEAVQTIQSITQALQKSKENYNAKCVEQERLKKEGATQREIEKAAVKSKKATDTYKLYVEKYALAKADFEQKMTETAQKFQDIEETHLIHIKEIIGSLSNAIKEIHLQIGQVHEEFINNMANTTVESLIQKFAESKGTGKERPGLIEFEECDTASAVEGIKPRKRKTFALPGIIKKEKDAESVECPDADSLNIPDVDEEGYSIKPETNQNDTKENHFYSSSDSDSEDEEPKKYRIEIKPMHPNNSHHTMASLDELKVSIGNITLSPAISRHSPVQMNRNLSNEELTKSKPSAPPNEKGTSDLLAWDPLFGPSLDSSSSSSLTSSSSARPTTPLSVGTIVPPPRPASRPKLTSGKLSGINEIPRPFSPPVTSNTSPPPAAPLARAESSSSISSSASLSAANTPTVGVSRGPSPVSLGNQDTLPVAVALTESVNAYFKGADPTKCIVKITGDMTMSFPSGIIKVFTSNPTPAVLCFRVKNISRLEQILPNAQLVFSDPSQCDSNTKDFWMNMQAVTVYLKKLSEQNPAASYYNVDVLKYQVSSNGIQSTPLNLATYWKCSASTTDLRVDYKYNPEAMVAPSVLSNIQVVVPVDGGVTNMQSLPPAIWNAEQMKAFWKLSSISEKSENGGSGSLRAKFDLSEGPSKPTTLAVQFLSEGSTLSGVDFELVGTGYRLSLIKKRFATGRYLADC [FCHO2]”, the “solubility in G1/S (log2)” value in data set [1] was -0.0326. The thermal stability score in data set [2] (setting [5]) was -0.516; in data set [2] (cell cycle stage: mitosis), 0.0307. Further, in data set [3], the “solubility change mitosis (log2)” value was determined as 0.0613. The melting temperature in data set [4] (cell cycle stage: G1/S) and in data set [4] (cell cycle stage: mitosis) was 50.9 °C each time.

As for “MVMKASVDDDDSGWELSMPEKMEKSNTNWVDITQDFEEACRELKLGELLHDKLFGLFEAMSAIEMMDPKMDAGMIGNQVNRKVLNFEQAIKDGTIKIKDLTLPELIGIMDTCFCCLITWLEGHSLAQTVFTCLYIHNPDFIEDPAMKAFALGILKICDIAREKVNKAAVFEEEDFQSMTYGFKMANSVTDLRVTGMLKDVEDDMQRRVKSTRSRQGEERDPEVELEHQQCLAVFSRVKFTRVLLTVLIAFTKKETSAVAEAQKLMVQAADLLSAIHNSLHHGIQAQNDTTKGDHPIMMGFEPLVNQRLLPPTFPRYAKIIKREEMVNYFARLIDRIKTVCEVVNLTNLHCILDFFCEFSEQSPCVLSRSLLQTTFLVDNKKVFGTHLMQDMVKDALRSFVSPPVLSPKCYLYNNHQAKDCIDSFVTHCVRPFCSLIQIHGHNRARQRDKLGHILEEFATLQDEAEKVDAALHTMLLKQEPQRQHLACLGTWVLYHNLRIMIQYLLSGFELELYSMHEYYYIYWYLSEFLYAWLMSTLSRADGSQMAEERIMEEQQKGRSSKKTKKKKKVRPLSREITMSQAYQNMCAGMFKTMVAFDMDGKVRKPKFELDSEQVRYEHRFAPFNSVMTPPPVHYLQFKEMSDLNKYSPPPQSPELYVAASKHFQQAKMILENIPNPDHEVNRILKVAKPNFVVMKLLAGGHKKESKVPPEFDFSAHKYFPVVKLV [NAA35]”, the “solubility in G1/S (log2)” value in data set [1] was -0.305. The thermal stability score was 0.213 in data set [2] (setting [5]) and 0.348 in data set [2] (cell cycle stage: mitosis). For the same sequence, the “solubility change mitosis (log2)” value in data set [3] is -0.198. Moreover, the melting temperature turned out to be 51.5 °C in data set [4] (cell cycle stage: G1/S) and 51 °C in data set [4] (cell cycle stage: mitosis).

As to “MVPSSPAVEKQVPVEPGPDPELRSWRHLVCYLCFYGFMAQIRPGESFITPYLLGPDKNFTREQVTNEITPVLSYSYLAVLVPVFLLTDYLRYTPVLLLQGLSFVSVWLLLLLGHSVAHMQLMELFYSVTMAARIAYSSYIFSLVRPARYQRVAGYSRAAVLLGVFTSSVLGQLLVTVGRVSFSTLNYISLAFLTFSVVLALFLKRPKRSLFFNRDDRGRCETSASELERMNPGPGGKLGHALRVACGDSVLARMLRELGDSLRRPQLRLWSLWWVFNSAGYYLVVYYVHILWNEVDPTTNSARVYNGAADAASTLLGAITSFAAGFVKIRWARWSKLLIAGVTATQAGLVFLLAHTRHPSSIWLCYAAFVLFRGSYQFLVPIATFQIASSLSKELCALVFGVNTFFATIVKTIITFIVSDVRGLGLPVRKQFQLYSVYFLILSIIYFLGAMLDGLRHCQRGHHPRQPPAQGLRSAAEEKAAQALSVQDKGLGGLQPAQSPPLSPEDSLGAVGPASLEQRQSDPYLAQAPAPQAAEFLSPVTTPSPCTLCSAQASGPEAADETCPQLAVHPPGVSKLGLQCLPSDGVQNVNQ [SLC19A1]”, the “solubility in G1/S (log2)” value in data set [1] amounted to 0.075. In addition, the thermal stability score in data set [2] (setting [5]) is -3.67; in data set [2] (cell cycle stage: mitosis) it was -3.7. Moreover, the “solubility change mitosis (log2)” value in data set [3] is -0.0504. For the same sequence, the figures for the melting temperature in data set [4] (cell cycle stage: G1/S) and in data set [4] (cell cycle stage: mitosis) were 57 °C and 54.9 °C, respectively.

Values taken from the supplement of paper PMC5998384.
